From article PMC4545750 come the findings set out here.

pKd: −log10 of the molar value.

The target in the test is Krimper Tudor2 domain (562-746) (D. melanogaster) (UniProt A1ZAC4). Kind of test: ITC. (In general: Isothermal titration calorimetry measures the heat released or taken up as one component is titrated into another.)
UniProt A1ZAC4, sequence (A1ZAC4 562-746): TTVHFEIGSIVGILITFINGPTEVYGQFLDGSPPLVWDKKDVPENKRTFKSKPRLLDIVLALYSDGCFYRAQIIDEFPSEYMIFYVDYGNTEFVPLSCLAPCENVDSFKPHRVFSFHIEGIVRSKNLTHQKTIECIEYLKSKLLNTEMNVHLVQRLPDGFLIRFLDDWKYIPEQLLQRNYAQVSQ

With “Aubergine peptide (residues 6 to 18) with symmetrically di-methylated arginine 15 (from UniProt O76922 6-18)”, the pKd was 5.39.

The substance “Aubergine peptide (residues 6 to 18) with symmetrically di-methylated arginine 11 (from UniProt O76922 6-18)” had a negative-log Kd (pKd) of 4.79.

In general, pKd refers to the Kd on a negative log10 scale, so that one unit is a factor of ten.
